Measured values: a protein production outcome set (Wang et al. 2014)

Assay: label from the status in PepcDB records

MRWLLLLLLLAACRAQGLPEPYATLERGGKEALRQVALEAQGYAGLLAGWLLVGEEDLPLAERAEYAWRYALFLEEVRAFEPGWEAEAAWRVAAPLLEAAEDARAFSAWARLLPEEEAVQALLRLGQGERLWEALFRGRAYEPLLKALPEGERPDLRAQALYRLGRYEEALPHYRAWAEADPRGYLGLGYALWRLGRREEALQAFARYDHPESRLAQGRLLEGMGRVEEALARYLASTPEGLWRATALLERLGRKEEALGVYLRLAQGESPYADDAALRAYLLAGELGNGEARQEAYARLEGGLGLLVGKRPSPPPQALEAPPAPLTPLVEALVRAGKAAWARGEVRYALWRRPKDWPALVPLLYRLGAYREGIRAAWPTALAYPRAYREWVEGYAGKEGLDPDLLFALLHVESRFDPKAVSPTGALGLAQFLRSTWADVARMLGEPPADPFDPESAIRYAARYLRWLMERCAAFSGVERLACAVTAYNGGIGYTLRGIAREGGLYAFLRFQERDEPREYLAKVLSAYAAYKAIP
protein production: failed

MATTLLSPTRFVHGLRFDNLRGDIFGGITAAIVALPLALAFGVASGAGPIAGLYGAICTGFFAALFGGTPAQISGPTGPMTVVMASTFANLTASNPENGWAMALTVVMFGGIFQVVLGLLGLGKYITFMPYTVISGFMSGIGVIIVILQIAPLLGHQTAPGVVPSLQAIPTYLNDVNFAALGLGLIALAIVFFSPPRLNRILPAPLIALVLGTIISMIFFGNVSLPRIGEIPSGLPSLHLPYLSWGSLQQMLLYSIMLAVLGSLDSLLTSLVADNISRSHHDSDRELVGQGIGNLVSGLCGGLPGAGATMRTVININSGGKTPIAGMIHALILLMIVLKAGQLTEPIPHAVLAGILIKVGIDIVDWSFLKRAHQLSTKGAGLMYLVLGLTVFVDLITAVAVGVFVANLFTVKNLTDLQLESIKSVTRADGEDWLLEEEQQILRAANGRIFMFHLSGPMSFGAAKSIARRLAIVENYDVLILDLATVPRLGVTALLAIETMLKDALAKQREVFLVGAKGQVQARLQRLPVLAQLSPHHRLESRLLALQMAAVCINVD
protein production: failed

MAICKVFRNYCKENDIQLHQANFSLSYDTNIPRQTGLSGSSAIVSAALNCLLDFYNVRHLIKVQVRPNIVLSAEKELGIVAGLQDRVAQVYGGLVHMDFSKEHMDKLGHGIYTPMDISLLPPLHLIYAENPSDSGKVHSMVRQRWLDGDEFIISSMKEVGSLAEEGRTALLNKDHSKLVELMNLNFDIRRRMFGDECLGAMNIEMVEVARRVGAASKFTGSGGAVVVFCPEGPSQVKLLEEECRKAGFTLQPVKIAPSCLNDSDIQTL
protein production: failed

VGPHAALMDATYRHQRRIYDITRRHFLLGRDELIAALAPPPGARVLEIACGTGRNLDLIDRRWPGLRLYGLDISEEMLRTARARLGTRARLAQGDATDFDARALFGAARFERIVISYALSMIPDWRPALAHAASLLSKEGELHVVDFGDQAGLPRWFRTGLRGWIGRFHVEPRDDLGAALAEVAAGVG
protein production: failed

GVSVSPDETMLAFGEDVLSRRVYNIYFKDIESGAMITDVLENTEGRIVWGNDNRHVFYIAKDLQTLLGNRVYRHELGTPQSRDVLVYEEQDDAYYISLGKSLDESQIVLFHESTTTSEVSVLDANDPLSLFKPVLAREEGHEYSVSKLGDSYYVLTNWQATNFRLMKVAIKDAADKSKWQEVVAHNPNARLEDELVLKDYLIIQTRENGLTRIKVMPFNGQKPFELSFDEPAYVLGLDVNA
protein production: failed

MVDSYDDSLDGEKSKTQVKRELHALVDLGERLTTLKADVLAKLPLTDALRKALAEAPKHTANIARKRHILFIGKLMRDQDQEAILVLLDQLDASTRQYNERFHNLERWRDRLIAGDDADLEKFVIEYPDADRQQLRSLIRQAQHEVARNKPPATSRKIFKYIRELDELQRGLR
protein production: not failed

MAHRTWGGRFGEGPDALAARFNASLAFDRALWREDLWQNRVHARMLHAVGLLSAEELEAILKGLDRIEEEIEAGTFPWREELEDVHMNLEARLTELVGPPGGKLHTARSRNDQVATDLRLYLRGAIDELLALLLALRRVLVREAEKHLDPLYVLPGYTHLQRAQPVLLAHWFLAYYEMLKRDAGRLEDAKERLNESPLGAAALAGTGFPIDRHFTARELGFKAPMRNSLDAVASRDFALEVLSALNIGMLHLSRMAEELILYSTEEFGFVEVPDAFATGSSIMPQKKNPDILELIRAKAGRVLGAFVGLSAVVKGLPLAYNKDLQEDKEPLLDALATYRDSLRLLAALLPGLKWRRERMWRAAEGGYTLATELADYLAEKGLPFREAHHVVGRLVRRLVEEGRALKDLTLEELQAHHPLFAEDALPLLRLETAIHRRRSYGGTAPEAVRERLEEAKKEVGLD
protein production: not failed
